In this assay the target is T1, recombinant voltage-dependent anion channel-1 (human, UniProt P21796 1-283).
T1 construct: human voltage-dependent anion channel-1; cDNA amplified from pCMV6-XL5-VDAC-1 with primers designed on NM_003374, cloned into pET-28b by XhoI and NheI; band at about 32 kDa on SDS-PAGE; also called VDAC-1; hVDAC-1
In words: SPR; Kringle 5 coupled to a CM5 sensor chip by amino coupling (180 RU); VDAC-1 injected at 0 to 280.00 μmol·L^-1; uncoupled cell as reference; 25°C, 40 μl·min^-1; regeneration with 10 mmol·L^-1 HEPES pH 7.4, 300 mmol·L^-1 NaCl. Conditions: both partners purified. (SPR reads the build-up and loss of mass on a sensor chip optically.)

Consider one molecule from PMC5066947, “Voltage-Dependent Anion Channel-1, a Possible Ligand of Plasminogen Kringle 5” (PLoS ONE, 2016).

T1 sequence (P21796 whole entry): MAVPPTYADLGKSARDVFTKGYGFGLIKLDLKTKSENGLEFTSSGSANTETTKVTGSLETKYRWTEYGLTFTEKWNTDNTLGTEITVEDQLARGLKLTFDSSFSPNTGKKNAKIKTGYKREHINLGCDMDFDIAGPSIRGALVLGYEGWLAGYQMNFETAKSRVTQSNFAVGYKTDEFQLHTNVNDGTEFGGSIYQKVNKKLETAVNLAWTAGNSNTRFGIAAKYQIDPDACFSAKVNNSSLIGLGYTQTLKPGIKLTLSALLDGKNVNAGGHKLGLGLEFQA

B1: recombinant plasminogen Kringle 5 (domain or fragment, human)
chain: DCMFGNGKGYRGKRATTVTGTPCQDWAAQEPHRHSIFTPETNPRAGLEKNYCRNPDGDVGGPWCYTTNPRKLYDYCDVPQCAAP
notes: fifth kringle domain of plasminogen, about 80 amino acid residues; expressed from pET-28b-hK5; band at about 8 kDa on SDS-PAGE; The vector pET-28b-hK5 was built in the authors' laboratory; neither the residue limits nor the end of the 6 x His tag are told; also called hK5; source: E. coli BL21 (DE3), soluble, purified (Ni2+-chelated Sepharose 6 Fast Flow, Sephadex G-25)
Regarding B1, the Ka was determined as 2430 M⁻¹.
